From patent publication US20060078622A1, “Pharmaceutical formulations containing microparticles or nanoparticles of a delivery agent” (priority 2004, published 2006)
Where “and” joins values, the source holds several entries; their conditions need not be identical. Equal values may be shown once. Read-outs that look alike come from different tables or passages of the source.

Conditions: IV
From the text: This value was assumed to be constant in the estimates of absolute bioavailability.

[1] = dose 8 μg/kg, individual animals
[2] = dose 9 μg/kg, individual animals

## Insulin: Recombinant human zinc insulin
Dose 8 μg/kg, X ± SD (n = 3)
  AUC0->∞: 100.7 ± 2.4 ng·min/mL
  AUC0->∞/Dose: 0.0126 ± 0.0003 kg·min/mL
  Vd: 0.157 ± 0.005 L/kg
[1]
  AUC0->∞: 99.35 ng·min/mL and 99.32 ng·min/mL and 103.4 ng·min/mL
  C0->∞/Dose: 0.0063 kg/mL and 0.0066 kg/mL and 0.0062 kg/mL
  Co: 50.67 ng/mL and 52.64 ng/mL and 49.63 ng/mL
  Vd: 0.15788 L/kg and 0.15198 L/kg and 0.16119 L/kg
  kel: 0.51 min⁻¹ and 0.53 min⁻¹ and 0.48 min⁻¹
Dose 9 μg/kg, X ± SD (n = 3)
  AUC0->∞: 99.4 ± 23.6 ng·min/mL
  AUC0->∞/Dose: 0.0110 ± 0.0026 kg·min/mL
  Co: 46.1 ± 9.5 ng/mL
  Vd: 0.201 ± 0.043 L/kg
  kel: 0.47 ± 0.02 min⁻¹
[2]
  AUC0->∞: 99.55 ng·min/mL and 75.67 ng·min/mL and 122.89 ng·min/mL
  C0->∞/Dose: 0.0052 kg/mL and 0.0040 kg/mL and 0.0061 kg/mL
  Co: 46.79 ng/mL and 36.32 ng/mL and 55.30 ng/mL
  Vd: 0.19235 L/kg and 0.2478 L/kg and 0.16275 L/kg
  kel: 0.47 min⁻¹ and 0.48 min⁻¹ and 0.45 min⁻¹
Dose […], X ± SD (n = 5)
  AUC0->∞/Dose: 0.0062 ± 0.0011 kg·min/mL
  Vd: 0.219 ± 0.068 L/kg
Average over all doses (2.5, 8, 9 μg/kg)
  C0->∞/Dose: 0.0053 kg/mL
